Source: paper PMC8934638, “H3K36 methylation and DNA-binding both promote Ioc4 recruitment and Isw1b remodeler function”

Key:
Assay in all cases: EMSA; EMSA; 15 fmol NCP (30 fmol unmodified NCP) per reaction; 5% native PAGE (37.5:1) in 0.4x TBE, 2% glycerol; binding buffer, pH and temperature not given (as in cited work)
Ioc4 2KE = target: T1, Ioc4 2KE (Saccharomyces cerevisiae, UniProt Q04213 1-475, K149E;K150E); settings: protein: recombinant; tags: N-terminal 6xHis-MBP; label: Cy5 on sense strand; blunt
T1 sequence: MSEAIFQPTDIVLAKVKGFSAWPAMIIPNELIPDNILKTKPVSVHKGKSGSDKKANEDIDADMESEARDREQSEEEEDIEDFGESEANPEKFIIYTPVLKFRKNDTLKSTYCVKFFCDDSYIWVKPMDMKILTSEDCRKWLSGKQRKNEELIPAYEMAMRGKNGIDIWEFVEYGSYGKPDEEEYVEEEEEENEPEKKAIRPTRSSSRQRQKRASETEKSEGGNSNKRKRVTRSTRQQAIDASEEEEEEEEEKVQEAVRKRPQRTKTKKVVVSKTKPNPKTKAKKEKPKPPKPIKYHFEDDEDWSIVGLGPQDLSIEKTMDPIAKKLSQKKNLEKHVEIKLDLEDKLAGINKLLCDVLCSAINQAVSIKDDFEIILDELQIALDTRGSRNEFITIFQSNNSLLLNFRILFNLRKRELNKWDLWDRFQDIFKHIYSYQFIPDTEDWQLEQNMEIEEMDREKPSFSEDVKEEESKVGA

Ioc4 PWWP 2KE = target: T2, Ioc4 PWWP 2KE (Saccharomyces cerevisiae, UniProt Q04213 1-178, K149E;K150E); settings: protein: recombinant; tags: N-terminal 6xHis; label: Cy5 on sense strand; blunt
T2 sequence: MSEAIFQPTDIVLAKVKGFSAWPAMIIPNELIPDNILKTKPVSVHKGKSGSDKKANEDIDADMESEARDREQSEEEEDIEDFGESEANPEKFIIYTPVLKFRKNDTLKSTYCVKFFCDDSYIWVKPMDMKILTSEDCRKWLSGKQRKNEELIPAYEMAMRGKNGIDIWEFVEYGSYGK

Ioc4 dPWWP = target: T3, Ioc4 dPWWP (Saccharomyces cerevisiae, UniProt Q04213 179-475, del1-178); settings: protein: recombinant; tags: N-terminal 6xHis-MBP; label: Cy5 on sense strand; blunt
T3 sequence: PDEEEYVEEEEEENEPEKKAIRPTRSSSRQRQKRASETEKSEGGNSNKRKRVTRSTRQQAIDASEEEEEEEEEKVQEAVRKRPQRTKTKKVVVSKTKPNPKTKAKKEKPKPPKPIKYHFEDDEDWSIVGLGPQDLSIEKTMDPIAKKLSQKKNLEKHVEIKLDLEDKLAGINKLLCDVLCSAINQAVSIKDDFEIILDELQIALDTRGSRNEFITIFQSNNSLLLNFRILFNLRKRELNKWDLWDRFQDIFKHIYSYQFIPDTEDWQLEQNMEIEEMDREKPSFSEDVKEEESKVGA

Ioc4 PWWP 2KA = target: T4, Ioc4 PWWP 2KA (Saccharomyces cerevisiae, UniProt Q04213 1-178, K149A;K150A); settings: protein: recombinant; label: Cy5 on sense strand; blunt
T4 sequence: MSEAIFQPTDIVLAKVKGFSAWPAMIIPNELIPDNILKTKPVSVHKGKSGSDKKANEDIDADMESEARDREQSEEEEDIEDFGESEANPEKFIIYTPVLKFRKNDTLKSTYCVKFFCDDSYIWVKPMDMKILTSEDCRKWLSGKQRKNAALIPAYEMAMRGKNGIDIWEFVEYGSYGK

B1: dsDNA 30 bp (601-derived EMSA probe) (dsDNA)
DNA 1: GGCAAGGTCGCTGTTCAATACATGCACAGG
DNA 2: CCTGTGCATGTATTGAACAGCGACCTTGCC
Kd (Ioc4 2KE): 76 nM | binding result (Ioc4 PWWP 2KE): no binding | Kd (Ioc4 dPWWP): 121 nM | binding result (Ioc4 PWWP 2KA): no binding
